The numbers were not newly measured in article PMC10518620, which cites them from elsewhere.

The target of the data set is C3aR (Homo sapiens) (UniProt Q16581).
Chain of UniProt Q16581 (Q16581 whole entry): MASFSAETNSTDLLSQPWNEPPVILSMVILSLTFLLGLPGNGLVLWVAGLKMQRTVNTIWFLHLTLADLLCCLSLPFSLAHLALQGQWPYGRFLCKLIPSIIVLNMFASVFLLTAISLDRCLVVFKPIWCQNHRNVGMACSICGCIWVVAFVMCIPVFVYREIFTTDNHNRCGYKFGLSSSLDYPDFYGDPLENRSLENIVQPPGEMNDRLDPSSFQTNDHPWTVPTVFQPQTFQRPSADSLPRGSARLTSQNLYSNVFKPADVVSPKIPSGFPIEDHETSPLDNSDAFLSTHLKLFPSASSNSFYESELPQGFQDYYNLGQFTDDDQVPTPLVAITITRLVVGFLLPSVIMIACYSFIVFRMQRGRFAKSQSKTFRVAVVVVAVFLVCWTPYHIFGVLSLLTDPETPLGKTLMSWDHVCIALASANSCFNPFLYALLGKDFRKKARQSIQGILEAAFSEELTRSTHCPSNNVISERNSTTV

What is called Kd is the free concentration of one partner at which half of the binding sites on the other are occupied at equilibrium, for simple one-to-one binding. As for C3a C3a (from UniProt P01024), the Kd is 1 nM.
